The assay has as its target T1, COOH-terminal domain of Numb (aa 298–603), purified (human, UniProt P49757-2 298-603).
T1 sequence (looked up): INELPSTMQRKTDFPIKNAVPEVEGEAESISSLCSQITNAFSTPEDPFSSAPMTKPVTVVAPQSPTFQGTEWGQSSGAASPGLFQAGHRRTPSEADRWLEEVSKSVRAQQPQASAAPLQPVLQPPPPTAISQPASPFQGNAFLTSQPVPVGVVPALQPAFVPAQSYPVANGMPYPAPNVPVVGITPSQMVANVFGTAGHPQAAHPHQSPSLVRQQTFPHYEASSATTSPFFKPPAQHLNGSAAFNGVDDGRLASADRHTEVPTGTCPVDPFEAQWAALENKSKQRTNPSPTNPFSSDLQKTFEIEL
The assay can be described thus: pull-down.

B1: GST–α ear (GST fusion protein containing aa 715–977 of the mouse α adaptin) (domain or fragment, UniProt P17426 715-977, looked up)
chain: PMALLADPAPAADPGPEDIGPPIPEADELLNKFVCKNSGVLFENQLLQIGVKSEFRQNLGRMYLFYGNKTSVQFQNFLPTVVHPGDLQTQLAVQTKRVAAQVDGGAQVQQVLNIECLRDFLTPPLLSVRFRYGGTAQSLTLKLPVTINKFFQPTEMAAQDFFQRWKQLSLPLQEAQKIFKANHPMDAEVTKAKLLGFGSALLDNVDPNPENFVGAGIIQTKALQVGCLLRLEPNAQAQMYRLTLRTSKEPVSRHLCELLAQQF
Consider B1, for which the binding result is recorded as “binds”.

The record behind these values is PMC2190585 (The Journal of Cell Biology, 2000).
